Test results as given in the Human Domainome abundance scans (Beltran et al. 2025).
± gives the uncertainty stated by the source.

B1: CD2-associated protein, residues 271 to 331; numbered along this chain, Q9Y5K6 (parent)
chain: KEYCRTLFAYEGTNEDELTFKEGEIIHLISKETGEAGWWRGELNGKEGVFPDNFAVQINEL

Variants of: B1
Assay: abundance fitness (aPCA) (normalised: wild type 0, dead -1); higher = more abundant; growth selection in yeast, the domain comes from the species named
Settings: Homo sapiens
Work on KEYCRTLFAYEGTNEDELTFKEGEIIHLISKETGEAGWWRGELNGKEMVFPDNFAVQINEL [G48M] yielded an abundance fitness of -0.947 ± 0.15.
Work on KEYCRTLFAYEGTNEDELTFKEGEIIHLISKETGEAGWWRGELNGKEVVFPDNFAVQINEL [G48V] yielded an abundance fitness of -0.864 ± 0.087.
For KEYCRTLFAYEGTNEDELTFKEGEIIHLISKETGEAGWWRGELNGKEYVFPDNFAVQINEL [G48Y], the abundance fitness was -1.18 ± 0.34.
In the case of KEYCRTLFAYEGTNEDELTFKEGEIIHLISKETGEAGWWRGELNGKESVFPDNFAVQINEL [G48S], the abundance fitness is reported as -0.843 ± 0.071.
With KEYCRTLFAYEGTNEDELTFKEGEIIHLISKETGEAGWWRGELNGKEHVFPDNFAVQINEL [G48H] the abundance fitness was -0.749 ± 0.13.
With KEYCRTLFAYEGTNEDELTFKEGEIIHLISKETGEAGWWRGELNGKEPVFPDNFAVQINEL [G48P] the abundance fitness was -0.932 ± 0.12.
For KEYCRTLFAYEGTNEDELTFKEGEIIHLISKETGEAGWWRGELNGKEEVFPDNFAVQINEL [G48E], the abundance fitness was -0.688 ± 0.08.
Work on KEYCRTLFAYEGTNEDELTFKEGEIIHLISKETGEAGWWRGELNGKEGVFADNFAVQINEL [P51A] yielded an abundance fitness of -0.447 ± 0.087.
KEYCRTLFAYEGTNEDELTFKEGEIIHLISKETGEAGWWRGELNGKEGVFCDNFAVQINEL [P51C] showed an abundance fitness of -0.923 ± 0.25.
In the case of KEYCRTLFAYEGTNEDELTFKEGEIIHLISKETGEAGWWRGELNGKHGVFPDNFAVQINEL [E47H], the abundance fitness is reported as -0.154 ± 0.084.
For KEYCRTLFAYEGTNEDELTFKEGEIIHLISKETGEAGWWRGELNGKDGVFPDNFAVQINEL [E47D], the abundance fitness was -0.347 ± 0.081.
With KEYCRTLFAYEGTNEDELTFKEGEIIHLISKETGEAGWWRGELNGKNGVFPDNFAVQINEL [E47N] the abundance fitness was -0.205 ± 0.062.
Variant KEYCRTLFAYEGTNEDELTFKEGEIIHLISKETGEAGWWRGELNGKGGVFPDNFAVQINEL [E47G] has an abundance fitness of -0.479 ± 0.081.
KEYCRTLFAYEGTNEDELTFKEGEIIHLISKETGEAGWWRGELNGKTGVFPDNFAVQINEL [E47T] gave an abundance fitness of -0.029 ± 0.09.
Variant KEYCRTLFAYEGTNEDELTFKEGEIIHLISKETGEAGWWRGELNGKFGVFPDNFAVQINEL [E47F] has an abundance fitness of -0.198 ± 0.073.
For KEYCRTLFAYEGTNEDELTFKEGEIIHLISKETGEAGWWRGELNGKYGVFPDNFAVQINEL [E47Y], the abundance fitness was -0.171 ± 0.059.
With KEYCRTLFAYEGTNEDELTFKEGEIIHLISKETGEAGWWRGELNGKLGVFPDNFAVQINEL [E47L] the abundance fitness was -0.241 ± 0.074.
KEYCRTLFAYEGTNEDELTFKEGEIIHLISKETGEAGWWRGELNGKVGVFPDNFAVQINEL [E47V] gave an abundance fitness of -0.029 ± 0.055.
KEYCRTLFAYEGTNEDELTFKEGEIIHLISKETGEAGWWRGELNGKRGVFPDNFAVQINEL [E47R] showed an abundance fitness of -0.02 ± 0.076.
KEYCRTLFAYEGTNEDELTFKEGEIIHLISKETGEAGWWRGELNGKAGVFPDNFAVQINEL [E47A] showed an abundance fitness of -0.248 ± 0.067.
Work on KEYCRTLFAYEGTNEDELTFKEGEIIHLISKETGEAGWWRGELNGKIGVFPDNFAVQINEL [E47I] yielded an abundance fitness of 0.053 ± 0.061.
For KEYCRTLFAYEGTNEDELTFKEGEIIHLISKETGEAGWWRGELNGKQGVFPDNFAVQINEL [E47Q], the abundance fitness was 0.014 ± 0.13.
For KEYCRTLFAYEGTNEDELTFKEGEIIHLISKETGEAGWWRGELNGKCGVFPDNFAVQINEL [E47C], the abundance fitness was -0.104 ± 0.068.
KEYCRTLFAYEGTNEDELTFKEGEIIHLISKETGEAGWWRGELNGKSGVFPDNFAVQINEL [E47S] showed an abundance fitness of -0.052 ± 0.048.
KEYCRTLFAYEGTNEDELTFKEGEIIHLISKETGEAGWWRGELNGKWGVFPDNFAVQINEL [E47W] gave an abundance fitness of -0.601 ± 0.15.
Work on KEYCRTLFAYEGTNEDELTFKEGEIIHLISKETGEAGWWRGELNGKPGVFPDNFAVQINEL [E47P] yielded an abundance fitness of -0.752 ± 0.14.
Work on KEYCRTLFAYEGTNEDELTFKEGEIIHLISKETGEAGWWRGELNGKMGVFPDNFAVQINEL [E47M] yielded an abundance fitness of -0.301 ± 0.21.
Variant KEYCRTLFAYEGTNEDELTFKEGEIIHLISKETGEAGWWRGELNGNEGVFPDNFAVQINEL [K46N] has an abundance fitness of -0.286 ± 0.18.
KEYCRTLFAYEGTNEDELTFKEGEIIHLISKETGEAGWWRGELNGCEGVFPDNFAVQINEL [K46C] gave an abundance fitness of -0.056 ± 0.27.
With KEYCRTLFAYEGTNEDELTFKEGEIIHLISKETGEAGWWRGELNGREGVFPDNFAVQINEL [K46R] the abundance fitness was 0.012 ± 0.056.
In the case of KEYCRTLFAYEGTNEDELTFKEGEIIHLISKETGEAGWWRGELNGTEGVFPDNFAVQINEL [K46T], the abundance fitness is reported as -0.273 ± 0.074.
For KEYCRTLFAYEGTNEDELTFKEGEIIHLISKETGEAGWWRGELNGPEGVFPDNFAVQINEL [K46P], the abundance fitness was -1.05 ± 0.19.
In the case of KEYCRTLFAYEGTNEDELTFKEGEIIHLISKETGEAGWWRGELNGEEGVFPDNFAVQINEL [K46E], the abundance fitness is reported as -0.348 ± 0.13.
For KEYCRTLFAYEGTNEDELTFKEGEIIHLISKETGEAGWWRGELNGLEGVFPDNFAVQINEL [K46L], the abundance fitness was -0.223 ± 0.054.
KEYCRTLFAYEGTNEDELTFKEGEIIHLISKETGEAGWWRGELNGDEGVFPDNFAVQINEL [K46D] gave an abundance fitness of -0.39 ± 0.19.
Variant KEYCRTLFAYEGTNEDELTFKEGEIIHLISKETGEAGWWRGELNGQEGVFPDNFAVQINEL [K46Q] has an abundance fitness of -0.265 ± 0.086.
Variant KEYCRTLFAYEGTNEDELTFKEGEIIHLISKETGEAGWWRGELNGAEGVFPDNFAVQINEL [K46A] has an abundance fitness of -0.134 ± 0.091.
With KEYCRTLFAYEGTNEDELTFKEGEIIHLISKETGEAGWWRGELNGVEGVFPDNFAVQINEL [K46V] the abundance fitness was -0.033 ± 0.068.
KEYCRTLFAYEGTNEDELTFKEGEIIHLISKETGEAGWWRGELNGYEGVFPDNFAVQINEL [K46Y] showed an abundance fitness of -0.34 ± 0.12.
For KEYCRTLFAYEGTNEDELTFKEGEIIHLISKETGEAGWWRGELNGGEGVFPDNFAVQINEL [K46G], the abundance fitness was -0.924 ± 0.24.
For KEYCRTLFAYEGTNEDELTFKEGEIIHLISKETGEAGWWRGELNGIEGVFPDNFAVQINEL [K46I], the abundance fitness was -0.309 ± 0.13.
For KEYCRTLFAYEGTNEDELTFKEGEIIHLISKETGEAGWWRGELNGHEGVFPDNFAVQINEL [K46H], the abundance fitness was 0.083 ± 0.12.
KEYCRTLFAYEGTNEDELTFKEGEIIHLISKETGEAGWWRGELNGSEGVFPDNFAVQINEL [K46S] showed an abundance fitness of -0.338 ± 0.062.
KEYCRTLFAYEGTNEDELTFKEGEIIHLISKETGEAGWWRGELNGMEGVFPDNFAVQINEL [K46M] gave an abundance fitness of -0.235 ± 0.084.
